Substrate in the data set: CCCCCCCCCCCCCCCC(=O)Oc1ccc([N+](=O)[O-])cc1
Briefly: hydrolysis assay, Michaelis-Menten nonlinear fit. It is filed as biochemical, Thermomyces lanuginosus. The following applies: free enzyme, optimum temperature and pH (50 °C, pH 8.5, 20 mM Tris-HCl), substrate 0.05-5.0 mM, p-NPP as the standard assay substrate. The source says: hydrolysis assay, Michaelis-Menten nonlinear fit on Lipase from Thermomyces lanuginosus (Lipozyme TL 100 L)

B1: Lipase from Thermomyces lanuginosus (Lipozyme TL 100 L) (Thermomyces lanuginosus) (protein)
chain: EVSQDLFNQFNLFAQYSAAAYCGKNNDAPAGTNITCTGNACPEVEKADATFLYSFEDSGVGDVTGFLALDNTNKLIVLSFRGSRSIENWIGNLNFDLKEINDICSGCRGHDGFTSSWRSVADTLRQKVEDAVREHPDYRVVFTGHSLGGALATVAGADLRGNGYDIDVFSYGAPRVGNRAFAEFLTVQTGGTLYRITHTNDIVPRLPPREFGYSHSSPEYWIKSGTLVPVTRNDIVKIEGIDATGGNNQPNIPDIPAHLWYFGLIGTCL
notes: commercial secreted enzyme preparation (Novozymes), free (not immobilised)
Take B1: the Km was 710 ± 50 µM.

For orientation: Km means the substrate concentration at which the rate is half of its maximum.

Values taken from article PMC5681633, “SnO2 hollow nanotubes: a novel and efficient support matrix for enzyme immobilization” (Scientific Reports, 2017).
